In test [1] the target is T1, C1q (human (endogenous in normal human serum), UniProt P02745 23-245; P02746 28-253; P02747 29-245). As to the kind of experiment: ELISA.
Test [2] deals with T1, C1q. Nature of the test: MST.

T1 sequence (P02745 23-245, chain 1 of 3): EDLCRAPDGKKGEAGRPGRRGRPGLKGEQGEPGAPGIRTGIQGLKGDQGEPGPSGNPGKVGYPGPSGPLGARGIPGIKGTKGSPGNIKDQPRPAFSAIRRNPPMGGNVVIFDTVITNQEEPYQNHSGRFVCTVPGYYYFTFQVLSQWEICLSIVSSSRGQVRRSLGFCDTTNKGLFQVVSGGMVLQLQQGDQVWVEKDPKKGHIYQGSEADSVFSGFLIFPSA
T1 sequence (P02746 28-253, chain 2 of 3): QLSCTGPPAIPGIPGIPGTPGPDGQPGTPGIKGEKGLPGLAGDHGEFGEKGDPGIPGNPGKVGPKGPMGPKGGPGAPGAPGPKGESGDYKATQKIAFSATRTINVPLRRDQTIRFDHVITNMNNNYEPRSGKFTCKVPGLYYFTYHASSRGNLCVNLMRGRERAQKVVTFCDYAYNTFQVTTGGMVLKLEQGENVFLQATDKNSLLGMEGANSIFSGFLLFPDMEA
T1 sequence (P02747 29-245, chain 3 of 3): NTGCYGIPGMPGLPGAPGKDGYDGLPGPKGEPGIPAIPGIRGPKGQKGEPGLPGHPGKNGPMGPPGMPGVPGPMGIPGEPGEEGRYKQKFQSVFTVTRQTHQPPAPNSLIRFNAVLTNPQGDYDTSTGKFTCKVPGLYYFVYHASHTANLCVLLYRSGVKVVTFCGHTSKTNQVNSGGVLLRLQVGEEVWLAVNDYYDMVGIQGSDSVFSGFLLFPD

B1: rMAP-1 (natural protein, UniProt P48740-3 20-380, looked up)
chain: HTVELNNMFGQIQSPGYPDSYPSDSEVTWNITVPDGFRIKLYFMHFNLESSYLCEYDYVKVETEDQVLATFCGRETTDTEQTPGQEVVLSPGSFMSITFRSDFSNEERFTGFDAHYMAVDVDECKEREDEELSCDHYCHNYIGGYYCSCRFGYILHTDNRTCRVECSDNLFTQRTGVITSPDFPNPYPKSSECLYTIELEEGFMVNLQFEDIFDIEDHPEVPCPYDYIKIKVGPKVLGPFCGEKAPEPISTQSHSVLILFHSDNSGENRGWRLSYRAAGNECPELQPPVHGKIEPSQAKYFFKDQVLVSCDTGYKVLKDNVEMDTFQIECLKDGTWSNKIPTCKKNEIDLESELKSEQVTE
For B1, in test [1], the binding result is given as “binds”.

B2: Zymogen rMASP-3 (enzyme, human, UniProt P48740-2 20-728, looked up)
chain: HTVELNNMFGQIQSPGYPDSYPSDSEVTWNITVPDGFRIKLYFMHFNLESSYLCEYDYVKVETEDQVLATFCGRETTDTEQTPGQEVVLSPGSFMSITFRSDFSNEERFTGFDAHYMAVDVDECKEREDEELSCDHYCHNYIGGYYCSCRFGYILHTDNRTCRVECSDNLFTQRTGVITSPDFPNPYPKSSECLYTIELEEGFMVNLQFEDIFDIEDHPEVPCPYDYIKIKVGPKVLGPFCGEKAPEPISTQSHSVLILFHSDNSGENRGWRLSYRAAGNECPELQPPVHGKIEPSQAKYFFKDQVLVSCDTGYKVLKDNVEMDTFQIECLKDGTWSNKIPTCKIVDCRAPGELEHGLITFSTRNNLTTYKSEIKYSCQEPYYKMLNNNTGIYTCSAQGVWMNKVLGRSLPTCLPECGQPSRSLPSLVKRIIGGRNAEPGLFPWQALIVVEDTSRVPNDKWFGSGALLSASWILTAAHVLRSQRRDTTVIPVSKEHVTVYLGLHDVRDKSGAVNSSAARVVLHPDFNIQNYNHDIALVQLQEPVPLGPHVMPVCLPRLEPEGPAPHMLGLVAGWGISNPNVTVDEIISSGTRTLSDVLQYVKLPVVPHAECKTSYESRSGNYSVTENMFCAGYYEGGKDTCLGDSGGAFVIFDDLSQRWVVQGLVSWGGPEECGSKQVYGVYTKVSNYVDWVWEQMGLPQSVVEPQVER
modifications: RED-tris-NTA dye on the His tag (in the MST only)
B2 showed a Kd in test [2] of 69.6 nM.

B3: rMASP-1 (enzyme, UniProt P48740 20-699, looked up)
chain: HTVELNNMFGQIQSPGYPDSYPSDSEVTWNITVPDGFRIKLYFMHFNLESSYLCEYDYVKVETEDQVLATFCGRETTDTEQTPGQEVVLSPGSFMSITFRSDFSNEERFTGFDAHYMAVDVDECKEREDEELSCDHYCHNYIGGYYCSCRFGYILHTDNRTCRVECSDNLFTQRTGVITSPDFPNPYPKSSECLYTIELEEGFMVNLQFEDIFDIEDHPEVPCPYDYIKIKVGPKVLGPFCGEKAPEPISTQSHSVLILFHSDNSGENRGWRLSYRAAGNECPELQPPVHGKIEPSQAKYFFKDQVLVSCDTGYKVLKDNVEMDTFQIECLKDGTWSNKIPTCKIVDCRAPGELEHGLITFSTRNNLTTYKSEIKYSCQEPYYKMLNNNTGIYTCSAQGVWMNKVLGRSLPTCLPVCGLPKFSRKLMARIFNGRPAQKGTTPWIAMLSHLNGQPFCGGSLLGSSWIVTAAHCLHQSLDPEDPTLRDSDLLSPSDFKIILGKHWRLRSDENEQHLGVKHTTLHPQYDPNTFENDVALVELLESPVLNAFVMPICLPEGPQQEGAMVIVSGWGKQFLQRFPETLMEIEIPIVDHSTCQKAYAPLKKKVTRDMICAGEKEGGKDACAGDSGGPMVTLNRERGQWYLVGTVSWGDDCGKKDRYGVYSYIHHNKDWIQRVTGVRN
With B3, the binding result in test [1] was “binds”.

As a reminder, the Kd is the concentration at which binding is half-saturated.
